Values of other authors as cited in publication PMC11939966.

Target: Tristetraprolin (TTP) (Homo sapiens) (UniProt P26651)
Assay: ITC

Chain of UniProt P26651 (P26651 whole entry): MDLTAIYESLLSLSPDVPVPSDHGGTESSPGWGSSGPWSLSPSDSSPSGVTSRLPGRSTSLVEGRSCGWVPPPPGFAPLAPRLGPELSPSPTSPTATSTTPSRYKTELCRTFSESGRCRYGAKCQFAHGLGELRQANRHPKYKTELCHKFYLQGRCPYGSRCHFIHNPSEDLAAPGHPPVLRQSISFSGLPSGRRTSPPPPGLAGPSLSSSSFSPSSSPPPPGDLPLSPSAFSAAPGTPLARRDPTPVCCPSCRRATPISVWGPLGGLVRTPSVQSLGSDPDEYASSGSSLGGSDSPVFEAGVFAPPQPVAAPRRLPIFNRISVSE

Kd: 2000 nM
Substance: CNOT1 800-999 (from UniProt A5YKK6)
